# Target: par6_caeel par-6 (UniProt Q9NAN2)
# Sequence (Q9NAN2 whole entry): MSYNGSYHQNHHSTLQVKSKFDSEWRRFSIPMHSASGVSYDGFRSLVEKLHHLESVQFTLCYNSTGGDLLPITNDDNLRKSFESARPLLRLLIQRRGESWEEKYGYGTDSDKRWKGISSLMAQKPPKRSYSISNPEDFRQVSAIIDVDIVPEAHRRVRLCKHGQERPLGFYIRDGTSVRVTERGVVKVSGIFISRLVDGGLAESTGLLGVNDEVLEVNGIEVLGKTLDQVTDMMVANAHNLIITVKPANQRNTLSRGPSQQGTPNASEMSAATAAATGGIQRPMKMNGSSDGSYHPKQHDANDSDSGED
# Chain of Cell division control protein 42 homolog (Caenorhabditis elegans), Q05062 T17N (Q05062 whole entry T17N): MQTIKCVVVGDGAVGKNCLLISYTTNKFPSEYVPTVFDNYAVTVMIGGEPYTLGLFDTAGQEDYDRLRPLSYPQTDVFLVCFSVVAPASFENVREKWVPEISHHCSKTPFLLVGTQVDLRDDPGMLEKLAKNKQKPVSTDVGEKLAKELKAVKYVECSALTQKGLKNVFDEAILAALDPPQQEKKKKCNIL
substance,measurement,value
"Cell division control protein 42 homolog (Caenorhabditis elegans), Q05062 T17N",effect of a mutation on the interaction,disrupting interaction

# Reference: IntAct's records for PubMed 16996049
